Laboratory results from patent EP2025757A2.
Ends that are not written are not given here.

Key:
[1] = target: serpin enzyme complex receptor (SEC-R) on human hepatoma cell lines (human); experiment: fluorescence microscopy of HuH7 cells with 100 nM fluorescein labeled peptide at 4 C; cells per 100 counted
[2] = target: serpin enzyme complex receptor (SEC-R) on human hepatoma cell lines (human); experiment: fluorescence microscopy of HepG2(low) cells with 100 nM fluorescein labeled peptide at 4 C; cells per 100 counted
[3] = target: serpin enzyme complex receptor (SEC-R) on human hepatoma cell lines (human); experiment: fluorescence microscopy of HepG2(high) cells with 100 nM fluorescein labeled peptide at 4 C; cells per 100 counted
[4] = target: serpin enzyme complex receptor (SEC-R) on human hepatoma cell lines (human); experiment: 125I-C105Y specific binding on cells
[5] = target: serpin enzyme complex receptor (SEC-R) on human hepatoma cell lines (human); experiment: 125I-C105Y saturation binding on HuH7 cells, Scatchard analysis
[6] = target: serpin enzyme complex receptor (SEC-R) on human hepatoma cell lines (human); experiment: 125I-C105Y saturation binding on HepG2 (low) cells, Scatchard analysis
[7] = target: serpin enzyme complex receptor (SEC-R) on human hepatoma cell lines (human); experiment: 125I-C105Y saturation binding on HepG2 (high) cells, Scatchard analysis

| Average % Fluorescent Cells [1] | Average % Fluorescent Cells [2] | Average % Fluorescent Cells [3] | fold less specific binding, HepG2 (low) against HepG2 (high) [4] | fold less specific binding, HepG2 (low) against HuH7 [4] | fold more C105Y bound, HuH7 against HepG2 (high) [4] | Kd [5] | Kd [6] | Kd [7] | Binder |
| --- | --- | --- | --- | --- | --- | --- | --- | --- | --- |
| 14.3% | 1.8% | 20.4% |  |  |  |  |  |  | CFLEAIPMSIPPEVKFNKPFVFLIIHRD (also: labelled with fluorescein isothiocyanate, site not given here) [fluorescein labeled C1315 peptide] |
|  |  |  | 7.5 fold | 10 fold | 1.5 fold | 70 nM | 22.5 nM | 50 nM | CSIPPEVKFNKPFVYLI (also: radio-iodinated with 125I, site not given here) [Peptide C105Y] |
